These are literature values, as cited in patent publication US20190351024A1, “IMMUNOCYTOKINES WITH PROGRESSIVE ACTIVATION MECHANISM” (PHILOGEN S.p.A., priority 2016, published 2019).

For the data set the following is noted: past clinical trials; cited from earlier work.

TNF-α: the maximum tolerated dose is listed as 150-300 μg/m^2/day.
